# Reference: patent US20120253009A1
# Bridge positions count the residues as written; N and C are the ends. Ends that are not written are not given here.
# B1: Fc-Loop-(SEQ ID NO: 8) (Fc fusion, part only; not given: Fc-Loop scaffold and insertion site, part only)
# chain, part: CSSGGPTLREWQQCSRAQ
# modifications: disulfide 1-14 (inferred); also: inserted into an Fc-Loop, Fc, site and spacers not given here
# B2: Fc-Loop-(SEQ ID NO: 9) (Fc fusion, part only; not given: Fc-Loop scaffold and insertion site, part only)
# chain, part: CSSGGPTLREWQQCQRAQ
# modifications: disulfide 1-14 (inferred); also: inserted into an Fc-Loop, Fc, site and spacers not given here
# B3: Fc-Loop-(SEQ ID NO: 10) (Fc fusion, part only; not given: Fc-Loop scaffold and insertion site, part only)
# chain, part: CSSGGPTLREWQQCGRAQ
# modifications: disulfide 1-14 (inferred); also: inserted into an Fc-Loop, Fc, site and spacers not given here
# Biological target: human mpl receptor (human) (UniProt P40238)
# Assay: cell-based or functional assay
row,Binder,Pb EC50 [ng/mL]
1,B1,0.28
2,B2,0.27
3,B3,2.31
